Results as given in patent US20030082746.

Tests used:
[1] = biological target: T1, pro-transglutaminase derived from S. mobaraense IFO13819 (transglutaminase having the pro-structure part)
T1 chain: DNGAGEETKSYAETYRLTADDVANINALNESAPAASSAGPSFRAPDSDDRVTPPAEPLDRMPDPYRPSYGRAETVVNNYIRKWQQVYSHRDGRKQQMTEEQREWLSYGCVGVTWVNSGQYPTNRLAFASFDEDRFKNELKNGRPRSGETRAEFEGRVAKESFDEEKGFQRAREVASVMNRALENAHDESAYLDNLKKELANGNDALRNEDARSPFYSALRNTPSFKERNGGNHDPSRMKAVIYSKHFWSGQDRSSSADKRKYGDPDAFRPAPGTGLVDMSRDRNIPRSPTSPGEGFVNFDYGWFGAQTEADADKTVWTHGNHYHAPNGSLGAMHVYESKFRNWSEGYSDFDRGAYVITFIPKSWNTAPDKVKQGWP

[2] = biological target: T2, pro-transglutaminase of S. mobaraense, Ala-Pro deletion type of the pro-structure part
T2 chain: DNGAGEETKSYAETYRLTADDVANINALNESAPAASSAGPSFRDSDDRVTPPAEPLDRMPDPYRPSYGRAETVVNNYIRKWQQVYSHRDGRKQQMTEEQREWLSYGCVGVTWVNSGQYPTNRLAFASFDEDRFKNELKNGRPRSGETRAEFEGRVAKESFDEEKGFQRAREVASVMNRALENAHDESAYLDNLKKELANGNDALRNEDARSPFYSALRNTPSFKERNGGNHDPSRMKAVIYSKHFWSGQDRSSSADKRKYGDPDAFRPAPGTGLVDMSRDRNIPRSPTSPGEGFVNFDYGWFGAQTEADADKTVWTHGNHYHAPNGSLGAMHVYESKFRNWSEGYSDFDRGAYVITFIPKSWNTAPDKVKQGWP

[3] = biological target: T3, pro-transglutaminase of S. mobaraense, Asp deletion type of the pro-structure part
T3 chain: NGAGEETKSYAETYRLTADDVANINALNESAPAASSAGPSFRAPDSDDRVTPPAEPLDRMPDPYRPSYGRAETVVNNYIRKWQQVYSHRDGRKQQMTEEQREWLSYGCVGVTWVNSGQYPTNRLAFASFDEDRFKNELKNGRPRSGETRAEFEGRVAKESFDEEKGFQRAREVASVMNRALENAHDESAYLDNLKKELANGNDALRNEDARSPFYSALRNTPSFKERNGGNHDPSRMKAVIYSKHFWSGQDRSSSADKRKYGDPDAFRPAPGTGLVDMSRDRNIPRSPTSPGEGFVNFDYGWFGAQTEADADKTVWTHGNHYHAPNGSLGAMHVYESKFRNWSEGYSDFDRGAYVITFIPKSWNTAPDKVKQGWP

[4] = biological target: T4, pro-transglutaminase of S. mobaraense, Asp-Asn-Gly-Ala-Gly-Glu deletion type of the pro-structure part
T4 chain: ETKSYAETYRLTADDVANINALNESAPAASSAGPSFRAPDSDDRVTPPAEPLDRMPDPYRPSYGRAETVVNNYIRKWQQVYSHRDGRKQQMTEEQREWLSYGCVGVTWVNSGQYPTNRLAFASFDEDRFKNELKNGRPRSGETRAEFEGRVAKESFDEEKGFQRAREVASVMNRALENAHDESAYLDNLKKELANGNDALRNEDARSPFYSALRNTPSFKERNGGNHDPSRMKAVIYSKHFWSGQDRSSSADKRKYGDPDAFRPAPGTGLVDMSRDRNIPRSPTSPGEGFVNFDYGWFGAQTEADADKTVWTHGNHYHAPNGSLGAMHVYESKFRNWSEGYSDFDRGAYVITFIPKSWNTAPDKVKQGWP

[5] = biological target: T5, pro-transglutaminase of S. mobaraense, Gly-Pro-Arg type modified variant of the pro-structure part
T5 chain: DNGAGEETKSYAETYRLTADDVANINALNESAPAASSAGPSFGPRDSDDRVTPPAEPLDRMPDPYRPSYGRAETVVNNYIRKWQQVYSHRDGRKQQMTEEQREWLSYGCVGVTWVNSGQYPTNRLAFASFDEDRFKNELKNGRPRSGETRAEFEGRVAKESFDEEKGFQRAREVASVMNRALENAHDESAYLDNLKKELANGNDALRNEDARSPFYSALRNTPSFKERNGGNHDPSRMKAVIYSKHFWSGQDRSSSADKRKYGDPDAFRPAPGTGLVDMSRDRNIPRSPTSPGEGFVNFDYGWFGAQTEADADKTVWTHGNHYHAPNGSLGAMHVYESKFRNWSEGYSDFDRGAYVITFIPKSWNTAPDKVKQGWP

[6] = biological target: T6, pro-transglutaminase of S. mobaraense, Gly-Pro-Lys type modified variant of the pro-structure part
T6 chain: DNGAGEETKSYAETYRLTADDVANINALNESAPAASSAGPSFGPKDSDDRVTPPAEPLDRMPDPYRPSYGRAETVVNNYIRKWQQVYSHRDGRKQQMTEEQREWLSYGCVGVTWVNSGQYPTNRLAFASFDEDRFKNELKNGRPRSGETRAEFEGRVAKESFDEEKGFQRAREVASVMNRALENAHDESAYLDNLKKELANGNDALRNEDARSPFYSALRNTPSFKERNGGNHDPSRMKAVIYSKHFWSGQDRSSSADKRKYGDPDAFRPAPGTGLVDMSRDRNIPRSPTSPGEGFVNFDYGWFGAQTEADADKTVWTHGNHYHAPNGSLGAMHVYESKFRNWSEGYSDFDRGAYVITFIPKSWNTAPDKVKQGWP

[7] = biological target: T7, pro-transglutaminase of S. mobaraense, Phe-Arg-Ala-Pro deletion type and Arg insertion-variant of the pro-structure part
T7 chain: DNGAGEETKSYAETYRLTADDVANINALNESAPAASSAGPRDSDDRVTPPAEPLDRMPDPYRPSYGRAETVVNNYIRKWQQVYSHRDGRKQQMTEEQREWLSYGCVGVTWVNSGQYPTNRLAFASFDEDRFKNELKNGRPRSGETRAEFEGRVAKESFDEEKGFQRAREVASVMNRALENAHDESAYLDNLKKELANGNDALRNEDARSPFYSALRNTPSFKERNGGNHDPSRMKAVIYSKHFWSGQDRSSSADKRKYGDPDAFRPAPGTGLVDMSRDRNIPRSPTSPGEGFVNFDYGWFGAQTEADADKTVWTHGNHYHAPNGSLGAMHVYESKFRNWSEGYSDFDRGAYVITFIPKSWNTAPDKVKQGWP

[8] = biological target: T8, pro-transglutaminase of S. mobaraense, Phe-Arg-Ala-Pro deletion type and Lys insertion-variant of the pro-structure part
T8 chain: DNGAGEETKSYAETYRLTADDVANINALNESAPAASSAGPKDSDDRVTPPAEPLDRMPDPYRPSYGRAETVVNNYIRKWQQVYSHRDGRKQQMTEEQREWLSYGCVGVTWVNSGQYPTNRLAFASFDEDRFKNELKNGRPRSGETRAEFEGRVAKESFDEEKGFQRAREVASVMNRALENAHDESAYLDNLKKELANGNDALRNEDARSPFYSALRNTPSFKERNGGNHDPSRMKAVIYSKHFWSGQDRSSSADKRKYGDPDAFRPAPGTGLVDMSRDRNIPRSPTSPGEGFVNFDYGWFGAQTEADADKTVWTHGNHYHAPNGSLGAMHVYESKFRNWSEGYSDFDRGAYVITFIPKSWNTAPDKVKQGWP

[9] = biological target: T9, pro-transglutaminase of S. mobaraense, Phe-Arg-Ala-Pro deletion type of the pro-structure part
T9 chain: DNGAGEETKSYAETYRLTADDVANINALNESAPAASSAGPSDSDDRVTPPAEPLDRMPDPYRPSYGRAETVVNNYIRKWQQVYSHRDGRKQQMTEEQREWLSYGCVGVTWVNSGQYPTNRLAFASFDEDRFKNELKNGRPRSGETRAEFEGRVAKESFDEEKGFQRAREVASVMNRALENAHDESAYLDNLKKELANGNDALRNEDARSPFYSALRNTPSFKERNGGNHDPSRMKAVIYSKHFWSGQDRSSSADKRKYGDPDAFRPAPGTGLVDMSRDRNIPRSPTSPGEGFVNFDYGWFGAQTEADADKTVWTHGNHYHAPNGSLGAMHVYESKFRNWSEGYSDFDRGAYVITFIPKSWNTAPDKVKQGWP

B1: SAMP45, serine protease produced by Streptomyces albogriseolus (protein)
chain: NGENSTAAGSSASATALKGKHRVTLITGDRVALDAKGRVVGLEPAEGREHIPVQIRRSDGHTLVVPADAARLVASGKLDQRLFDVTELNKAATRTAHRGGLKVIVGYRGAAKAAKADVRDAGTVRRTLTSLNADAVQTPQEAGAELWEAVTDGDRTASGVARVWLDGVRKASLDTSVGQIGTPKAWEAGYDGKGVKIAVLDTGVDATHPDLKGQVTASKNFTSAPTTGDVVGHGTHVASIAAGTGAQSKGTYKGVAPGAKILNGKVLDDAGFGDDSGILAGMEWAAAQGADIVNMSLGGMDTPETDPLEAAVDKLSAEKGILFAIAAGNEGPQSIGSPGSADSALTVGAVDDKDKLADFSSTGPRLGDGAVKPDLTAPGVDITAASAKGNDIAKEVGEKPAGYMTISGTSMATPHVAGAAALLKQQHPEWKYAELKGALTASTKDGKYTPFEQGSGRVQVDKAITQTVIAEPVSLSFGVQQWPHADDKPVTKKLTYRNLGTEDVTLKLTSTATGPKGKAAPAGFFTLGASTLTVPANGTASVDVTADTRLGGAVDGTYSAYVVATGAGQSVRTAAAVEREVESYNVTLKVLDRSGKATANYMAYLSGLTGLGKDRSYAPYEADGAVSVRVPKGGYVLDASVLVGADPETWRGADWLAQPKLDVTRNTTVTVDARKAKPVKVTVPGKAAKAQFASADYTIETNDSAVSYGWWLENYSGFRSAHLGPQITNGTLSQQWNTHFSNGAKAQYTAISGGKVKKLATGYTRAFKAKEFATVQVGMGAAASGKKGAVTAFGWLPGSSGASGFSQEQKLPSTRTLYLSTVNGVTWDLDFEQLGGVDNEGWPIYDAVYTIGVGKTYKGGKTYKETVNTAVFGPRLTSSYGVFRDGNSIYGVIPLFADGKGHAGSSEFSSAVTTLYRNGKKVGSNNDPLFGEEGFTVPSGDAAYRLTTSVKRSAKVAAASTRIDASWTFRSKKTSGEKQLPVSSARFAAVTGLDSKVAAGKKATFPVVVEGAAQGKNLKSLAVYVSYNGGKTWKKTTVTKGKITVKNPAKGKAISFRAKITDKKGNASLITIHNAYYGK
N-terminal amino acid sequence of the cleaved transglutaminase [1]: it had the structure in which the 4 C-terminal amino acids of Phe-Arg-Ala-Pro from the pro-structure part was added to the naturally occurring mature transglutaminase | N-terminal amino acid sequence of the cleaved transglutaminase [2]: Phe-Arg was added to the N-terminal of the naturally occurring mature transglutaminase shown in SEQ ID NO: 5 in the transformant harboring pPKSPTG1 AP | N-terminal amino acid sequence of the cleaved transglutaminase [3]: Phe-Arg-Ala-Pro was added to the naturally occurring mature transglutaminase in the transformant harboring pPKSPTG1 D or pPKSPTG1 DNGAGE | N-terminal amino acid sequence of the cleaved transglutaminase [4]: Phe-Arg-Ala-Pro was added to the naturally occurring mature transglutaminase in the transformant harboring pPKSPTG1 D or pPKSPTG1 DNGAGE | N-terminal amino acid sequence of the cleaved transglutaminase [5]: the sequence identical to that of the naturally occurring mature transglutaminase was confirmed for C. glutamicum ATCC13869 harboring pVSS1 and pPKSPTG11, or pVSS1 and pPKSPTG12, which had Asp as the N-terminal amino acid residue | N-terminal amino acid sequence of the cleaved transglutaminase [6]: the sequence identical to that of the naturally occurring mature transglutaminase was confirmed for C. glutamicum ATCC13869 harboring pVSS1 and pPKSPTG11, or pVSS1 and pPKSPTG12, which had Asp as the N-terminal amino acid residue | N-terminal amino acid sequence of the cleaved transglutaminase [7]: Ser-Ala-Gly-Pro-Lys (SEQ ID NO: 69) or Ser-Ala-Gly-Pro-Arg (SEQ ID NO: 70) was found to be added to the sequence of the naturally occurring mature transglutaminase for C. glutamicum ATCC13869 harboring pVSS1 and pPKSPTG13, or pVSS1 and pPKSPTG14 | N-terminal amino acid sequence of the cleaved transglutaminase [8]: Ser-Ala-Gly-Pro-Lys (SEQ ID NO: 69) or Ser-Ala-Gly-Pro-Arg (SEQ ID NO: 70) was found to be added to the sequence of the naturally occurring mature transglutaminase for C. glutamicum ATCC13869 harboring pVSS1 and pPKSPTG13, or pVSS1 and pPKSPTG14 | N-terminal amino acid sequence of the cleaved transglutaminase [9]: Ser-Ala-Gly-Pro-Ser was added to the N-terminal of the naturally occurring mature transglutaminase in the transformant harboring pPKSPTG1 FRAP
